Here are results for one substance from article PMC11623929.

The target of this assay is WDR5-Luc-FKBP12.

As to VHL-FRB (from UniProt P42345 2019-2112), the decrease of luciferase activity of the WDR5 fusion in HEK293 cells, rapamycin overnight, 10- or 100-fold excess of the VHL-FRB plasmid (bridged by rapamycin) is 50.2%.
